From patent US20190275196A1, “Hemostatic Powders with Self-Assembling Peptide Hydrogels” (3-D Matrix, Ltd., priority 2016, published 2019)

How the values were obtained:
Type in all cases: physicochemical
[1] = Congo Red assay of gel formation of peptide solutions with hemostatic powders; settings: for gel formation when mixed with hemostatic powder compared with pure peptide solution: Congo Red assay, visual
Protocol: A Congo Red assay was performed to determine gel formation of peptide solutions in a saline buffer solution (pH 7.4) when used with hemostatic powders.
Pure self-assembling peptide solution (PuraMatrix®), and peptide solution/hemostatic powders (Surgiflo®, Ethicon) mixtures were plated on a glass slide. After 30 seconds, 1% Congo Red solution in saline buffer solution (pH 7.4) was added around and on top of the gel aliquots and then the excess Congo Red solution was wiped off prior to examination. Visualization of gel formation determined the success or failure of gelation. […] In (1) and (2), self-assembling peptide solution (PuraMatrix®) before and after Congo red assay, respectively is shown. In (3) and (4), PuraMatrix® mixed with absorbable gelatin powder (Surgiflo®, Ethicon) at a ratio of 2 to 1 (v/w) before and after Congo red assay, respectively is shown. In (5) and (6), PuraMatrix® mixed with absorbable gelatin powder (Surgiflo®, Ethicon) at a ratio of 5 to 1 (v/w) before and after Congo red assay, respectively is shown.
Pure self-assembling peptide solution (IEIK13 1.3% at pH3.0) and peptide solution/hemostatic powders (Surgiflo®, Ethicon) mixture were plated on a glass slide. After 30 seconds, 1% Congo Red solution in saline buffer solution ([…]) was added around and on top of the gel aliquots and then the excess Congo Red solution was wiped off prior to examination. Visualization of gel formation determined the success or failure of gelation. […] In (1) and (2), self-assembling peptide solution (IEIK13 1.3% at pH 3.0) before and after Congo Red assay, respectively, is shown. In (3) and (4), IEIK13 1.3% at pH 3.0 mixed with absorbable gelatin powder, (Surgiflo®, Ethicon) at a ratio of 2 to 1 (v/w) before and after Congo Red assay, respectively, is shown. The interval of grids in FIG. 8 is 1 cm.

[2] = Apparent miscibility of gelatin powder with peptide solution or saline (syringe mixing); settings: various mixing ratios, mixed between two luer-lock syringes, plated on glass slide
Protocol: Gelatin powder (Surgiflo®) was separately mixed with saline and RADA16 2.5% solution (PuraMatrix®) to determine their apparent miscibility. Gelatin powders were placed in a luer-lock syringe and saline or RADA16 2.5% solution (PuraMatrix®) was placed in another luer-lock syringe. The syringes were connected to mix the contents of the two syringes by moving the plungers back and forth, for example, six times until the consistency was even. The mixtures were plated on a glass slide. FIG. 3 presents images of gelatin powder (Surgiflo®) and saline mixtures (upside images) and gelatin powder and RADA16 2.5% (PuraMatrix®) mixtures at various mixing ratios.
Gelatin powder (Surgiflo®) was mixed with IEIK13 1.3% (pH 3.0) solution to determine its apparent miscibility. Gelatin powders were placed in a luer-lock syringe and IEIK13 1.3% (pH 3.0) was placed in another luor-lock syringe. The syringes were connected to mix contents of the two syringes by moving the plungers back and forth, for example, six times until the consistency was even. The mixtures were plated on a glass slide. FIG. 9 presents images of gelatin powder (Surgiflo®) and IEIK13 mixtures at various mixing ratios.

[3] = Rheology (storage/loss modulus, frequency sweep) before and after DMEM treatment; settings: DMEM for 20 min; 25° C.; 1-10 rad/sec
Protocol: The rheological properties of gelatin powders with saline, self-assembling peptide, and gelatin powder with self-assembling peptide were evaluated using a rheometer (DHR-1, TA Instruments) with 20 mm plates. The samples were placed on the rheometer plate and the moduli were measured at 25° C. with the plates placed at a measuring geometry gap of 1000 μm. Measurements were performed after 2 minutes of relaxation time at 25° C. Frequency sweep tests were performed at 1 rad/sec˜10 red/sec of oscillation stress with strain at 0.01.
Pure RADA16 2.5% (PuraMatrix®), gelatin powder (Surgiflo®) mixed with saline at 2:1 w/v ratio, and gelatin powder mixed with RADA16 2.5% at various mixing ratios were all tested. These samples were treated with DMEM for 20 min after their frequency tests were performed without DMEM treatment. FIG. 4 presents the rheology of gelatin powders mixed with saline at a ratio of 2:1 w/v before and after DMEM treatment. FIG. 5 presents the rheology of RADA16 2.5% solution before and after DMEM treatment. FIG. 6 presents the rheology of gelatin powders mixed with RADA16 2.5% at a ratio of 1:5 w/v before and after DMEM treatment.

[4] = peptide solution mixed with gelatin powder (Surgiflo®) at a ratio of 2 to 1 (v/w), 1% Congo Red in saline buffer solution (pH 7.4)

Substance	gel formation when mixed with hemostatic powder compared with pure peptide solution [1]	gel formation (gelation) ([1]; mixed with a hemostatic powder at a ratio of 5 to 1, expected, not tested)	gel formation (gelation) [1, 4]	apparent miscibility with gelatin powder (Surgiflo®) [2]	apparent miscibility with gelatin powder (Surgiflo®) ([2]; listed as IEIK13)	gel formation (gelation) ([1]; peptide solution mixed with gelatin powder (Surgiflo®) at a ratio of 5 to 1 (v/w), 1% Congo Red in saline buffer solution (pH 7.4))	apparent miscibility with gelatin powder (Surgiflo®) ([2]; listed as RADA16)	change of moduli (storage/loss) after DMEM treatment [3]
IEIK13 1.3% (pH3.0): self-assembling peptide having the repeating sequence Ile-Glu-Ile-Lys (IEIK), 1.3% solution at pH 3.0	gelled even when mixed with hemostatic powder to a similar extent as observed in pure peptide solution	capable of gelation	capable of gelation	capable of homogenous mixture	homogeneously mixed across various mixing ratios			
RADARADARADARADA [RADA16 2.5%]	gelled even when mixed with hemostatic powder to a similar extent as observed in pure peptide solution		capable of gelation	capable of homogenous mixture		capable of gelation	homogeneously mixed across various mixing ratios	increased
